Data on three molecules can be found in patent publication US20120196804A1 (INDIANA UNIVERSITY RESEARCH AND TECHNOLOGY, published 2012).

The target in one assay is GLP-1 receptor. Kind of assay: cell-based or functional assay.
The target of the next assay is glucagon receptor. Briefly: cell-based or functional assay.

B1: Oxyntomodulin KRNR (peptide)
peptide: HSQGTFTSDYSKYLDSRRAQDFVQWLMNTKRNR
Turning to B1, the “cAMP Induction, EC50 (luciferase reporter, HEK293)” value (from here on “cAMP Induction, EC50”) in the assay with GLP-1 receptor amounted to 3.21 nM; with glucagon receptor, 2.77 nM.

B2: Glucagon R12 K29 (peptide)
peptide: HSQGTFTSDYSRYLDSRRAQDFVQWLMNK
With B2, the “cAMP Induction, EC50” value came to 0.41 nM with GLP-1 receptor and 0.81 nM with glucagon receptor.

B3: Glucagon-Cex (peptide)
peptide: HSQGTFTSDYSKYLDSRRAQDFVQWLMNTGPSSGAPPPS
modifications: C-terminal amide
With B3, the “cAMP Induction, EC50” value in the assay with GLP-1 receptor was 2.75 nM; with glucagon receptor it was 0.25 nM.
